Results on 103 substances are retold here after the supplement of paper PMC12042874.

± gives the uncertainty stated by the source.

The nature of one series: amyloid nucleation score (Sup35N fusion, yeast selection) (log enrichment); library NNK1; higher = more nucleation; inactive = no reads after selection. The method, boiled down: (§1)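 The nucleation score is the DiMSum log enrichment of output over input reads, centred on the mode score of non-aggregating sequences. Only sequences with 100 or more input reads were scored, using Illumina sequencing of input and output plasmid inserts. Psi-negative yeast expressing Sup35N fused to peptides of 20 random codons were induced 24 hours with 100 μM copper sulfate and grown 7 days at 30°C on medium lacking adenine and uracil.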
The substance AAFTSSNYMFGFYFGLWVSN registered an amyloid nucleation score of 1.55 ± 0.45. AANGCASSV yielded an amyloid nucleation score of -0.856 ± 0.44. For AASKIIENIGHLC, the amyloid nucleation score was -0.337 ± 0.52. For the substance ACANLKSGIFKRFFTSCSGT, the amyloid nucleation score is -0.959 ± 0.65. In turn, ACDVVIRTWITKDTKGFYRA showed an amyloid nucleation score of 0.488 ± 0.29. In turn, ACEELVQIVVYCDSFMFSPS registered an amyloid nucleation score of 1.46 ± 0.52. Regarding ACEKLQVNW, the amyloid nucleation score was 0.329 ± 0.35. The same measure, in the same setting: the result for ACHCNIFFHR reads 6.325 ± 0.058. Still for that read-out and setting: the result for ACKCAFSGFSYVAFGPVMGG reads -1.61 ± 1.9; that for ACLCVIRMFHYNGLRH, 0.576 ± 0.76; that for ACSCDALRSNLAIIKRESRV, -0.766 ± 2.4. Still for that read-out and setting: next, ACSPGTVVKDITDTSK: 0.45 ± 0.63; ACWLAKHKEYRLSGHVQEFD: 0.035 ± 0.52. With ADCFNLYGRTFDKFKPPHMD, the amyloid nucleation score was found to be 0.631 ± 0.54. With ADNRVQRYTDPFLGSVSMYK, the amyloid nucleation score was determined as 0.563 ± 0.49. Substance ADPLMI registered an amyloid nucleation score of -0.163 ± 0.28. Still for that read-out and setting: next, ADRWVLSFMEPCAT: “inactive”. Consider ADSLSDELFDYKTYIAVKSF, for which the amyloid nucleation score was -0.645 ± 0.27. ADTLFPLDHPVINFSPFIVL registered an amyloid nucleation score of 5.789 ± 0.05.

Substance ADVQWRHRTGISSSIVRSGA registered an amyloid nucleation score of 0.822 ± 1. AEHLICLGYGQRWGNYTGLP had an amyloid nucleation score of 0.164 ± 0.62. As to AENITGWVVPIVVTLTASAR, the amyloid nucleation score was -0.163 ± 0.29. AERPSLYWLKLRKRRITVV had an amyloid nucleation score of 0.46 ± 1.2. As for AEYCSNVGMSLYFLWSKPMQ, the amyloid nucleation score stood at 1.89 ± 0.18. Substance AFEFKRLRIACVNDGQINLG showed an amyloid nucleation score of 2.43 ± 0.42. Substance AFGAVFRGEKR registered an amyloid nucleation score of 0.241 ± 1.4. AFGVYRVCLVWVHL had an amyloid nucleation score of 0.232 ± 0.49. Turning to AFIARVTRFGVTRDPLIRQ, the amyloid nucleation score entry is “inactive”. Regarding AFIDDRAVTCCYQTVLLCER, the amyloid nucleation score was -0.341 ± 0.48. Consider AFLRVIDQQLRLEIHIIMKL, for which the amyloid nucleation score result is “inactive”.

Turning to AFNRSKQSIKAFSA, the amyloid nucleation score is -0.369 ± 1.2.

Consider AFNYRSVCWLLGTGSSSWSE, for which the amyloid nucleation score result is “inactive”.

On to AFPRARGYMG, for which the amyloid nucleation score was -0.575 ± 0.37. Same read-out and setting: the result for AFRCCMFAFVFCSSGDSRAE reads 7.392 ± 0.056. In the case of AFRIFPHL, the amyloid nucleation score result is “inactive”. Same read-out and setting: next, AFRSRFVIFHDGIRVLGYAD: -1.13 ± 2.1. The same measure, in the same setting: next, AFTGQCEEKIS: -0.226 ± 0.42. As for AFTPSWRTRLQMTTL, the amyloid nucleation score is -0.386 ± 0.57. The substance AFWFMCWGMTRTRYV showed an amyloid nucleation score of 2.73 ± 0.11.

Turning to AFYRAFTPCISVPIRND, the amyloid nucleation score was found to be 0.765 ± 0.46. As for AFYWLHLDGFLQLNQQMSVA, the amyloid nucleation score worked out at 0.992 ± 0.7.

Take AGGVKSCTKRFN: the amyloid nucleation score is -0.232 ± 1.5.

As for AGLPRSGSIQRDYREKVWAA, the amyloid nucleation score is -0.194 ± 1.3.

Turning to AGLVYEIKWYYADL, the amyloid nucleation score is -0.482 ± 0.33. For the substance AHRPGMFFRNYVVGDLS, the amyloid nucleation score is -0.026 ± 0.48. For the substance AHYRRVSVAQTHWMADPFGR, the amyloid nucleation score came to 0.976 ± 0.36.

For AIALQV, the amyloid nucleation score was -1.18 ± 0.94. AIIDDHSVCYNVLKRFSNFG came in with an amyloid nucleation score of 1.5 ± 0.66. AIIERADLSGMPLFSGFPGD returned an amyloid nucleation score of -0.148 ± 0.8. Same read-out and setting: the result for AKDFIGQSC reads 0.688 ± 0.45; that for AKELDNGIYFMKLWLREELE, -0.743 ± 1.2.

For the substance AKLAS, the amyloid nucleation score was 0.151 ± 0.59.

AKSLVDRKRVDNPWRFSVGW: the amyloid nucleation score is 0.297 ± 0.51. Same read-out and setting: the result for AKSWCVSIKLVSDNSYLWET reads 1.12 ± 0.14.

Turning to ALDQN, the amyloid nucleation score was -0.412 ± 0.78. Substance ALDVARDKDVILYEFQLELR gave an amyloid nucleation score of 0.366 ± 0.72. Consider ALGVHR, for which the amyloid nucleation score is 1.76 ± 0.61.

Turning to ALGYGIWGSICNWVWDPFTA, the amyloid nucleation score entry is “inactive”. ALLCFLWCRMYGTFSTSCVL returned an amyloid nucleation score of 0.315 ± 0.85.

On to ALLIAY, for which the amyloid nucleation score was -0.992 ± 0.59. With ALLWQECYMP, the amyloid nucleation score was found to be 2.26 ± 0.17. As to ALMRLTRNSMSFWRQ, the amyloid nucleation score was -0.17 ± 0.36.

On to ALPAMTQDKWHMNALRNYLD, for which the amyloid nucleation score was 1.48 ± 0.81. Still for that read-out and setting: next, ALPCYCPPVQSPCASFGWME: -0.569 ± 0.29; ALRGVRVMWAKRS: -0.484 ± 0.88.

Substance ALSSNVGSMAFSR returned an amyloid nucleation score of -0.06 ± 0.88. ALTIDRCRAESYLRRLTFLL yielded an amyloid nucleation score of -0.653 ± 0.4. With ALWNYAVNSTLWWGLGYGWR, the amyloid nucleation score was found to be 0.052 ± 0.41. ANMCISGAYNCVSVLCLRNR registered an amyloid nucleation score of 6.59 ± 0.047.

In the case of APHWLLRDPIESTADNDVYY, the amyloid nucleation score was 2.73 ± 0.44.

APSLVVRPSFGGLRTRVVYP: the amyloid nucleation score is 0.44 ± 0.58. As for APVFYIPIMFSQLFGLAQIY, the amyloid nucleation score turned out to be 6.935 ± 0.06. For AQSALLKS, the amyloid nucleation score was -1.22 ± 1.2. Same read-out and setting: next, ARAFPNMPPVLILILHLRLY: 0.961 ± 0.35; ARATQAEYRIERRGRFCILS: 0.21 ± 0.38. In turn, ARGPLKSGINQNVCSCGTSI gave an amyloid nucleation score of 0.118 ± 1.5. The substance ARHKSENWNYAVDLLSLILS showed an amyloid nucleation score of 1.59 ± 0.41.

Take ARHPECQSCSWRYCLYVVHC: the amyloid nucleation score result was “inactive”. For the substance ARMSNMNPLFWLP, the amyloid nucleation score was -0.04 ± 0.35. Still for that read-out and setting: the result for ARPFRRCYSKADAWGVQQVG reads 0.556 ± 0.79. With ARRGHKK, the amyloid nucleation score amounted to 1.32 ± 0.64. In turn, ARVSGILLVMLCRYHFGLRE registered an amyloid nucleation score of 0.102 ± 0.69. For the substance ARWMVWTLESHLPDNFTMVN, the amyloid nucleation score was -1.21 ± 1.1. Turning to ARYHYWGGERASSLNKVSQW, the amyloid nucleation score came to 0.699 ± 1. For ASAFVRVMNV, the amyloid nucleation score is 0.527 ± 0.5.

The substance ASAVIWGERAKLRKYLIPTR showed an amyloid nucleation score of 0.94 ± 0.7. On to ASFSNCWG, for which the amyloid nucleation score was 0.486 ± 0.32. Consider ASHLIYCFEARASLILL, for which the amyloid nucleation score stood at 0.686 ± 1.1. On the same count and under the same terms, next, ASLSPNTASYNLELPSIMHM: 0.283 ± 0.71; ASNTANIPYGII: 0.489 ± 0.32. The substance ASSIDYQRTS returned an amyloid nucleation score of 0.322 ± 0.71.

Another series is described as follows: amyloid nucleation score (Sup35N fusion, yeast selection) (log enrichment); library NNK3; higher = more nucleation; inactive = no reads after selection. The method, boiled down: as §1
Turning to LTLLR, the amyloid nucleation score entry is “inactive”.

The next series in a line: amyloid nucleation score (Sup35N fusion, yeast selection) (log enrichment); library NNK2; higher = more nucleation; inactive = no reads after selection. The method, boiled down:
as §1
LTLLR: the amyloid nucleation score was -0.122 ± 0.42. Take YYFMVL: the amyloid nucleation score came out at 0.656 ± 0.35. In the case of YYLICST, the amyloid nucleation score was 0.023 ± 0.47. The same measure, in the same setting: next, YYLVYKAGKMLIEYHKSYNW: -1.1 ± 1; YYLYWHFKIYWRQHLVNAFN: -1 ± 1.1; YYMVSP: -0.093 ± 0.33.

YYNIQLSFVDMVLMYYDESM yielded an amyloid nucleation score of 4.443 ± 0.04. As to YYRYPYTLKCPGGLQERQHL, the amyloid nucleation score was -0.028 ± 0.76. In turn, YYSCPASLLFNTGLPVKYSW yielded an amyloid nucleation score of -1.26 ± 0.36. The substance YYSLLLGSTKSVAN came in with an amyloid nucleation score of -0.038 ± 0.33. For the substance YYTFFNKRYNRWCMMNLNLT, the amyloid nucleation score entry was “inactive”. Regarding YYTPRWCFAYVSRLVWFLLP, the amyloid nucleation score result was “inactive”.
